Experimental data from the supplement of paper PMC9112550, “Optimization of the antimicrobial peptide Bac7 by deep mutational scanning” (BMC Biology, 2022).

system: Escherichia coli TOP10; experiment: shrunken log2 fold change of peptide-encoding DNA abundance (4.5 h post-induction vs induction); higher = less antimicrobial activity (less host growth inhibition); conditions: time post-induction: 4.5 h; library: site-saturation at positions 5, 18, 19, 20
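Further: peptides expressed intracellularly from a pBAD plasmid library in pooled LB shake-flask culture, induced with 0.3% L-arabinose, DNA abundance read by NGS, three biological replicates, DESeq2 with apeglm shrinkage.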

Row | Sequence | shrunken log2 fold change
1 | RRIRDRPPRLPRPRPRPSHHPRP | -0.344
2 | RRIRDRPPRLPRPRPRPSHKPRP | -0.373
3 | RRIRDRPPRLPRPRPRPSIQPRP | -0.0741
4 | RRIRDRPPRLPRPRPRPSKRPRP | -0.273
5 | RRIRDRPPRLPRPRPRPSLAPRP | 0.474
6 | RRIRDRPPRLPRPRPRPSMAPRP | 0.202
7 | RRIRDRPPRLPRPRPRPSPPPRP | -0.15
8 | RRIRDRPPRLPRPRPRPSPQPRP | 0.204
9 | RRIRDRPPRLPRPRPRPSRMPRP | -0.0207
10 | RRIRDRPPRLPRPRPRPSSCPRP | 0.00339
11 | RRIRDRPPRLPRPRPRPSTKPRP | 0.116
12 | RRIRDRPPRLPRPRPRPSTMPRP | 0.0367
13 | RRIRDRPPRLPRPRPRPSVCPRP | 0.294
14 | RRIRDRPPRLPRPRPRPSVKPRP | -0.256
15 | RRIRDRPPRLPRPRPRPTCHPRP | 0.0627
16 | RRIRDRPPRLPRPRPRPTCNPRP | 0.13
17 | RRIRDRPPRLPRPRPRPTDIPRP | -0.231
18 | RRIRDRPPRLPRPRPRPTDSPRP | -0.0622
19 | RRIRDRPPRLPRPRPRPTEDPRP | -0.0699
20 | RRIRDRPPRLPRPRPRPTEWPRP | 0.531
21 | RRIRDRPPRLPRPRPRPTHFPRP | -0.0613
22 | RRIRDRPPRLPRPRPRPTHGPRP | 0.117
23 | RRIRDRPPRLPRPRPRPTHNPRP | -0.00516
24 | RRIRDRPPRLPRPRPRPTKDPRP | 0.0518
25 | RRIRDRPPRLPRPRPRPTKTPRP | -0.014

Row | Sequence | shrunken log2 fold change
26 | RRIRDRPPRLPRPRPRPTMFPRP | 0.0915
27 | RRIRDRPPRLPRPRPRPTNTPRP | -0.142
28 | RRIRDRPPRLPRPRPRPTNWPRP | 0.111
29 | RRIRDRPPRLPRPRPRPTQAPRP | 0.017
30 | RRIRDRPPRLPRPRPRPTQLPRP | -0.0815
31 | RRIRDRPPRLPRPRPRPTRSPRP | 0.877
32 | RRIRDRPPRLPRPRPRPTSEPRP | 0.236
33 | RRIRDRPPRLPRPRPRPTTPPRP | 0.351
34 | RRIRDRPPRLPRPRPRPTTWPRP | 0.467
35 | RRIRDRPPRLPRPRPRPTVWPRP | 0.527
36 | RRIRDRPPRLPRPRPRPTYIPRP | -0.393
37 | RRIRDRPPRLPRPRPRPTYKPRP | -0.529
38 | RRIRDRPPRLPRPRPRPVDQPRP | -0.131
39 | RRIRDRPPRLPRPRPRPVECPRP | 0.018
40 | RRIRDRPPRLPRPRPRPVFFPRP | 0.208
41 | RRIRDRPPRLPRPRPRPVIAPRP | 0.224
42 | RRIRDRPPRLPRPRPRPVKEPRP | -0.0586
43 | RRIRDRPPRLPRPRPRPVKNPRP | -0.0293
44 | RRIRDRPPRLPRPRPRPVLPPRP | 0.0231
45 | RRIRDRPPRLPRPRPRPVMMPRP | -0.168
46 | RRIRDRPPRLPRPRPRPVMQPRP | 0.023
47 | RRIRDRPPRLPRPRPRPVNLPRP | 0.0119
48 | RRIRDRPPRLPRPRPRPVNRPRP | -0.131
49 | RRIRDRPPRLPRPRPRPVQSPRP | -0.0116
50 | RRIRDRPPRLPRPRPRPVREPRP | 0.929

Row | Sequence | shrunken log2 fold change
51 | RRIRDRPPRLPRPRPRPVSNPRP | 0.00716
52 | RRIRDRPPRLPRPRPRPVTVPRP | -0.135
53 | RRIRDRPPRLPRPRPRPVVAPRP | 0.725
54 | RRIRDRPPRLPRPRPRPVYSPRP | 0.0356
55 | RRIRDRPPRLPRPRPRPWAPPRP | 0.00499
56 | RRIRDRPPRLPRPRPRPWCAPRP | -0.0367
57 | RRIRDRPPRLPRPRPRPWCDPRP | 0.211
58 | RRIRDRPPRLPRPRPRPWCQPRP | -0.0971
59 | RRIRDRPPRLPRPRPRPWDTPRP | -0.029
60 | RRIRDRPPRLPRPRPRPWDWPRP | 1.03
61 | RRIRDRPPRLPRPRPRPWFEPRP | -0.175
62 | RRIRDRPPRLPRPRPRPWHWPRP | 0.00118
63 | RRIRDRPPRLPRPRPRPWHYPRP | -0.225
64 | RRIRDRPPRLPRPRPRPWIVPRP | 0.0145
65 | RRIRDRPPRLPRPRPRPWKNPRP | -0.0182
66 | RRIRDRPPRLPRPRPRPWLMPRP | -0.1
67 | RRIRDRPPRLPRPRPRPWNWPRP | 0.0868
68 | RRIRDRPPRLPRPRPRPWQDPRP | -0.0397
69 | RRIRDRPPRLPRPRPRPWQYPRP | -0.482
70 | RRIRDRPPRLPRPRPRPWRAPRP | 0.132
71 | RRIRDRPPRLPRPRPRPWRIPRP | -0.139
72 | RRIRDRPPRLPRPRPRPWSWPRP | 0.215
73 | RRIRDRPPRLPRPRPRPWTMPRP | -0.0209
74 | RRIRDRPPRLPRPRPRPWTTPRP | -0.0204
75 | RRIRDRPPRLPRPRPRPWVCPRP | -0.0108
